Data published in article PMC5566391.
Each block holds one molecule with its values, some of them ahead of it.

Experiments:
[1] = target: TRAIL-Trimer fusion protein (human) (UniProt P50591); assay: SDS-PAGE under non-reducing and reducing conditions; 2 µg of purified protein on 10% or 15% SDS-PAGE, Coomassie Blue; TRAIL-Trimer also by western blot
[2] = target: T1, TRAIL-Fc fusion protein (human), P50591; assay: as above; settings: remark: other sources report otherwise
T1 chain: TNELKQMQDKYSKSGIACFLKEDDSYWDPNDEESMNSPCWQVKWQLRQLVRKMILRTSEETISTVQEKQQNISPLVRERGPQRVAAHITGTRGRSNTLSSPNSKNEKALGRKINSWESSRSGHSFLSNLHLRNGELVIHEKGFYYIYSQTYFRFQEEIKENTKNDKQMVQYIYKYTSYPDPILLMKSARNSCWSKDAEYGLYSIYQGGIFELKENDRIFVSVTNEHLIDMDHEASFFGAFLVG

stoichiometry N [1]: 3
Molecule: TRAIL-Trimer fusion protein (from UniProt P50591 39-281) (ligand)

stoichiometry N [2]: 2
B1: TRAIL-Fc fusion protein, P50591 39-281 (Fc fusion)
chain: T1 chain
